From the supplement of paper PMC10724198
± gives the standard deviation of the averaged measurements.

The sequences below were run on Saccharomyces cerevisiae (assay: protein stability index of tFT-peptide fusion (C-terminal peptide) (PSI (0-1 scale)); higher = more stable (slower turnover)). Conditions: genetic background: wild type; temperature: 30 C.
Method: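 MPS profiling in S. cerevisiae of the yeast C-terminome library: the last 12 aa of each annotated ORF are fused to the C-terminus of a sfGFP-mCherry timer, after a GGGS linker. Cells are FACS-sorted into 8 mCherry/sfGFP bins and deep-sequenced. PSI runs from 0 (unstable) to 1 (stable); wild type and das1Δ backgrounds, two technical replicates each.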

LSFVLASLNANK [FUN14 C-terminal 12 aa] and LSIGQKLTTPLC [SYC1 C-terminal 12 aa] are within error of each other in protein stability index: 0.67 ± 0.037 for the first, 0.656 ± 0.029 for the second.

Compared with “LSLIYSPHLYMS [YJL136W-A C-terminal 12 aa]”, LSNIITLCRIIV [PEX34 C-terminal 12 aa] is higher in protein stability index: 0.101 ± 0.0022 for the first, 0.319 ± 0.0077 for the second.

Compared with LSQLVKKKPRRH [HIF1 C-terminal 12 aa], LSVKWAVNTLMS [SRP101 C-terminal 12 aa] is lower in protein stability index: 0.729 ± 0.073 for the first, 0.568 ± 0.039 for the second.

LTSMSARIAFDN [AAD14 C-terminal 12 aa] and LVASNFFYAETK [TFS1 C-terminal 12 aa] are within error of each other in protein stability index: 0.699 ± 0.024 for the first, 0.687 ± 0.028 for the second.

LVPEEEEETKDR [GRX5 C-terminal 12 aa] and LYAFHQVGIHFS [DIM1 C-terminal 12 aa] are within error of each other in protein stability index: 0.698 ± 0.033 for the first, 0.685 ± 0.014 for the second.

LYELKGLLGNDS [INP2 C-terminal 12 aa] and LYHKDADTIFHA [IRC11 C-terminal 12 aa] are within error of each other in protein stability index: 0.673 ± 0.032 for the first, 0.715 ± 0.015 for the second.

Compared with LYPLFEAVPFRR [YBL096C C-terminal 12 aa], LYSFNQLEPLQT [GIC2 C-terminal 12 aa] is lower in protein stability index: 0.734 ± 0.01 for the first, 0.669 ± 0.025 for the second.

MDDEFVSGRFEI [SCH9 C-terminal 12 aa] and MDETIAPLVGCL [YEL008W C-terminal 12 aa] are within error of each other in protein stability index: 0.7026 ± 0.0042 for the first, 0.701 ± 0.038 for the second.

First: MDLEKDRYYDLS [DAS2 C-terminal 12 aa]
Second: MHQYSAIIPSGT [YJL182C C-terminal 12 aa]
The protein stability index of the first is higher: 0.68 ± 0.027 for the first, 0.603 ± 0.0061 for the second.

Compared with MITCLTAALKLN [AVT6 C-terminal 12 aa], MLQYLVFVYIEK [YCR085W C-terminal 12 aa] is higher in protein stability index: 0.174 ± 0.0018 for the first, 0.21 ± 0.016 for the second.

First: MTDFSSSIIKGK [YCR090C C-terminal 12 aa]
Second: MVKIRTKNDAKN [TAF2 C-terminal 12 aa]
The protein stability index of the first is higher: 0.677 ± 0.048 for the first, 0.6135 ± 0.00067 for the second.

MVTSIRSTPNYI [MED6 C-terminal 12 aa] and NAILNGGSVSGL [YAR066W C-terminal 12 aa] are within error of each other in protein stability index: 0.722 ± 0.051 for the first, 0.668 ± 0.02 for the second.

NASYTKKYVPHP [YPR059C C-terminal 12 aa] and NATYNDSESSLN [SPO13 C-terminal 12 aa] are within error of each other in protein stability index: 0.703 ± 0.063 for the first, 0.721 ± 0.0083 for the second.

NDINNSRPITRK [ARO80 C-terminal 12 aa] and NEDWPNESKPLV [GOR1 C-terminal 12 aa] are within error of each other in protein stability index: 0.666 ± 0.03 for the first, 0.663 ± 0.011 for the second.

NEELEKLRPPIT [SIP3 C-terminal 12 aa] and NEIATKLEETKL [TYS1 C-terminal 12 aa] are within error of each other in protein stability index: 0.716 ± 0.052 for the first, 0.687 ± 0.0072 for the second.

Going from NESLSTILLYII [YKR033C C-terminal 12 aa] to “NFFESYRTISCL [YPL038W-A C-terminal 12 aa]”, the protein stability index falls from 0.561 ± 0.0068 to 0.3261 ± 0.0021.

Going from NFGVSSSFSFKP [PEX3 C-terminal 12 aa] to NFVMTVFWKIPV [PER33 C-terminal 12 aa], the protein stability index falls from 0.7154 ± 0.0041 to 0.558 ± 0.075.

NGANIFITSALT [YGL176C C-terminal 12 aa] and NGLKYHRGHSTH [SFP1 C-terminal 12 aa] are within error of each other in protein stability index: 0.684 ± 0.016 for the first, 0.6745 ± 0.0032 for the second.

First: NIFYQLLLTVNY [YBR013C C-terminal 12 aa]
Second: NIGSPLGAPKKK [MBF1 C-terminal 12 aa]
The protein stability index of the first is lower: 0.272 ± 0.02 for the first, 0.7008 ± 0.0064 for the second.

NIHQTDYIYARL [BUD16 C-terminal 12 aa] and NILKVEKRAVLE [PMT1 C-terminal 12 aa] are within error of each other in protein stability index: 0.708 ± 0.12 for the first, 0.659 ± 0.02 for the second.

First: NKEYWMKHKKPQ [PDE2 C-terminal 12 aa]
Second: NKRDKRPANFTR [TSC11 C-terminal 12 aa]
The protein stability index of the first is higher: 0.762 ± 0.013 for the first, 0.692 ± 0.018 for the second.

First: NKVEENLEGLYL [RPT2 C-terminal 12 aa]
Second: NLSEAIHDNNGS [NNK1 C-terminal 12 aa]
The protein stability index of the first is lower: 0.671 ± 0.015 for the first, 0.7091 ± 0.00097 for the second.

NNVPPIHPSLLH [NGR1 C-terminal 12 aa] and NPSILGDFTRED [RTR1 C-terminal 12 aa] are within error of each other in protein stability index: 0.695 ± 0.017 for the first, 0.715 ± 0.02 for the second.

“NRHSYCFSNLAP [YOL085W-A C-terminal 12 aa]” and NRIVSLKDATSK [GLN4 C-terminal 12 aa] are within error of each other in protein stability index: 0.691 ± 0.023 for the first, 0.685 ± 0.025 for the second.

NSFELNDFFITS [HAC1 C-terminal 12 aa] and NSLIFDAFNQIR [CDH1 C-terminal 12 aa] are within error of each other in protein stability index: 0.74 ± 0.031 for the first, 0.736 ± 0.054 for the second.

NTSRIAKFFNRR [SEC15 C-terminal 12 aa] and NYAPHLSDATTS [MAC1 C-terminal 12 aa] are within error of each other in protein stability index: 0.70527 ± 7.1e-05 for the first, 0.7064 ± 0.0029 for the second.

PAAKGKNLSFKR [RRP6 C-terminal 12 aa] and PADIDKYIIQRK [FMP46 C-terminal 12 aa] are within error of each other in protein stability index: 0.709 ± 0.015 for the first, 0.672 ± 0.029 for the second.

First: PEDCKDDKYFVN [LCB2 C-terminal 12 aa]
Second: PFKERAVFLLVL [YDR524W-C C-terminal 12 aa]
The protein stability index of the first is higher: 0.685 ± 0.04 for the first, 0.361 ± 0.0078 for the second.

PGVDVEVVVASN [RPS20 C-terminal 12 aa] and PIAAIKEILDQV [DSF1 C-terminal 12 aa] are within error of each other in protein stability index: 0.702 ± 0.038 for the first, 0.639 ± 0.03 for the second.

First: PIIKEILQEYES [DNA2 C-terminal 12 aa]
Second: PIKLKSDEEMII [YFL040W C-terminal 12 aa]
The protein stability index of the first is higher: 0.729 ± 0.013 for the first, 0.6724 ± 0.0042 for the second.

PILCTSEDFMGW [RGP1 C-terminal 12 aa] and PKWTDCEGDLTT [DET1 C-terminal 12 aa] are within error of each other in protein stability index: 0.732 ± 0.049 for the first, 0.7387 ± 0.0071 for the second.

PLKDLDPNAFRG [YOX1 C-terminal 12 aa] and “PLNDQVCPNSPL [YLR154W-F C-terminal 12 aa]” are within error of each other in protein stability index: 0.692 ± 0.021 for the first, 0.694 ± 0.033 for the second.

PLYSMVAGENSL [SPO23 C-terminal 12 aa] and PMIENLRFPNAR [YEH2 C-terminal 12 aa] are within error of each other in protein stability index: 0.688 ± 0.023 for the first, 0.7039 ± 0.0046 for the second.

Compared with PMIKRQCEIIQF [TIP41 C-terminal 12 aa], PPAGIPPPPPLP [PAN1 C-terminal 12 aa] is higher in protein stability index: 0.676 ± 0.0097 for the first, 0.711 ± 0.025 for the second.

First: PPSDPSSIKIRN [KIN28 C-terminal 12 aa]
Second: PQENHDNKEEQS [HEK2 C-terminal 12 aa]
The protein stability index of the first is higher: 0.729 ± 0.0076 for the first, 0.688 ± 0.033 for the second.

PQGAGRGRGMPM [CCT7 C-terminal 12 aa] and PQMDDHTVISEI [MLO127 C-terminal 12 aa] are within error of each other in protein stability index: 0.678 ± 0.034 for the first, 0.6854 ± 0.006 for the second.

PRDEQDSRKRNR [IBD2 C-terminal 12 aa] and PREILLRLMNDK [PRP6 C-terminal 12 aa] are within error of each other in protein stability index: 0.7315 ± 0.0047 for the first, 0.704 ± 0.096 for the second.

PRRSDLRPEFAE [VMA9 C-terminal 12 aa] and PSAYVLFYERIF [UBP5 C-terminal 12 aa] are within error of each other in protein stability index: 0.665 ± 0.018 for the first, 0.678 ± 0.018 for the second.

First: PSFSNSQWRIIF [YOR169C C-terminal 12 aa]
Second: PSYAVCDNILVT [YOL013W-B C-terminal 12 aa]
The protein stability index of the first is higher: 0.694 ± 0.016 for the first, 0.653 ± 0.017 for the second.

Compared with PTFLIPLRLCFV [EMA19 C-terminal 12 aa], PTPPTPPTPPQQ [ECM19 C-terminal 12 aa] is higher in protein stability index: 0.336 ± 0.0072 for the first, 0.687 ± 0.027 for the second.

Compared with PTTRPYIYEPRK [ELA1 C-terminal 12 aa], PTWQIVEDIRNT [PMT3 C-terminal 12 aa] is higher in protein stability index: 0.662 ± 0.017 for the first, 0.718 ± 0.038 for the second.
